Measurements published in article PMC11906780 (Scientific Reports, 2025).

Assays:
[1] = biological target: RSV G^ecto with GalNAc-restricted O-glycosylation (Human respiratory syncytial virus A, …, UniProt P03423); experiment: cryo-EM structure; conditions: both partners purified
[2] = biological target: T1, RSV strain A2 (RSV/A2) G glycoprotein ectodomain (RSV G^ecto) (Human respiratory syncytial virus A, …, UniProt P03423); experiment: BLI; conditions: both partners purified
T1 construct: not shown: 6xHistidine-Tag, C-terminal, kept
T1 sequence (P03423 whole entry, looked up, the tested form may be a part): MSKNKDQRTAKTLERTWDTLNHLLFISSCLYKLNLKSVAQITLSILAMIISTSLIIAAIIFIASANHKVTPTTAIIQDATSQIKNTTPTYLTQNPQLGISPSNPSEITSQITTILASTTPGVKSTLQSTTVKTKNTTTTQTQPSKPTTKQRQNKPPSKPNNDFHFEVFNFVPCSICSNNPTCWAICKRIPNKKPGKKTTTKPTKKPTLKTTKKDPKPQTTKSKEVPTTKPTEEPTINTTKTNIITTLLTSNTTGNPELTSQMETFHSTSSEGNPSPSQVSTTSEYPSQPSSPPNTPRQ

Chain of RSV G^ecto with GalNAc-restricted O-glycosylation (P03423 whole entry, looked up, the tested form may be a part): as above

Row | Binder | binding result [1] | binding result [2]
1 | Fab 3D3 (papain fragment of mAb 3D3) (Fab, V domains shown, source: papain digestion of the full length mAb from CHO-S, Fc removed with protein A, purified (Superdex 200 SEC)) VH: EEQLVESGGGLVQPGRSLRLSCVGSGLRFEEHAMHWVRQAPGRGLEWVSGISWNSGSVGYADSVKGRFTTSRDNAKDILFLEMNTLRSEDTALYFCAIMVATTKNDFHYYKDVWGKGTTVTVSS VL: QIVLTQSPATLSLSPGERATLSCRASQSVSNHLAWYQQKPGQAPRLLIYETSNRATGIPPRFSGSGSGTDFTLTISSLEPEDFAVYYCQQRNNWYTFGQGTKLEIK | binds | 
2 | human monoclonal antibody 3D3 (recombinant human IgG1) (antibody, V domains shown, also called mAb 3D3; TRL3D3; source: CHO-S, electroporated, purified (HiTrap Protein G)) VH: EEQLVESGGGLVQPGRSLRLSCVGSGLRFEEHAMHWVRQAPGRGLEWVSGISWNSGSVGYADSVKGRFTTSRDNAKDILFLEMNTLRSEDTALYFCAIMVATTKNDFHYYKDVWGKGTTVTVSS VL: QIVLTQSPATLSLSPGERATLSCRASQSVSNHLAWYQQKPGQAPRLLIYETSNRATGIPPRFSGSGSGTDFTLTISSLEPEDFAVYYCQQRNNWYTFGQGTKLEIK |  | binds
3 | human monoclonal antibody 2D10 (recombinant human IgG1) (antibody, V domains shown, also called mAb 2D10; source: CHO-S, electroporated, purified (HiTrap Protein G)) VH: QVQLVQSGPEVKKPGASVRLSCKASGYVFTNYGVSWVRQAPGQGLEWMGWSSPYNGNTYYAQKLKARVTMTTDTSTNTAYMELRSLRSDDTAVYYCGRDMLGVVQAVAGPFDSWGQGTLVTVSS VL: DTPMTQSPSSVSASVGDRVTISCRASQGISNSLAWYQQKLGKAPQLLIYAASSLQSGVPSRFSGSGSGTDFTLTISSLQPEDFATYYCQQTNTFPFTFGPGTKVEVR |  | binds
4 | Fab 2D10 (papain fragment of mAb 2D10) (Fab, V domains shown, source: papain digestion of the full length mAb from CHO-S, Fc removed with protein A, purified (Superdex 200 SEC)) VH: QVQLVQSGPEVKKPGASVRLSCKASGYVFTNYGVSWVRQAPGQGLEWMGWSSPYNGNTYYAQKLKARVTMTTDTSTNTAYMELRSLRSDDTAVYYCGRDMLGVVQAVAGPFDSWGQGTLVTVSS VL: DTPMTQSPSSVSASVGDRVTISCRASQGISNSLAWYQQKLGKAPQLLIYAASSLQSGVPSRFSGSGSGTDFTLTISSLQPEDFATYYCQQTNTFPFTFGPGTKVEVR | binds | 
5 | human monoclonal antibody 3G12 (recombinant human IgG1) (antibody, V domains shown, also called mAb 3G12; source: CHO-S, electroporated, purified (HiTrap Protein G)) VH: QLQLQESGPGLVKPSETLSLTCTVSGGSISSSNYYWGWIRQPPGKGLEWIASIHDSGSIYYNPSLRSRVTISVDTSKNQFSLKLSSVTAADTAVYYCARHLVWFGELRNNWFDPWGQGTLVTVAS VL: EIVMTQSPATLSVSPGERATLSCRASQSVNSNLAWYQHKPGQAPRLLIYGASTRATGIPARFSGSGSGTDFTLTISSLQSEDFAVYYCQQYNNWPLFGPGTKVDLK |  | binds
